# According to patent publication US20230009539:
# Tested on: Purified recombinant SF2
substance,measurement,value
Recombinant IKKi,in vitro kinase assay,IKKi indeed was able to phosphorylate SF2 in vitro
